# Source: US20090253622A1, “USE OF TLR3 AGONISTS FOR THE TREATMENT OF NEURODEGENERATIVE DISORDERS” (Nederlandse Organisatie voor toegepast - …, priority 2006, published 2009)
# “Also recorded” adds a separate entry of the source.
# How the values were obtained:
# Type in all cases: cell-based
# [1] = tested on: human adult astrocytes; assay: cDNA array profiling of cytokine, chemokine and growth factor genes in human adult astrocytes
# Method: Adult human astrocytes from post-mortem subcortical white matter samples were isolated and cultured as previously described (Bsibsi et al., J Neuropath Exp Neurol 61:1013-1021 [2002]). […] When indicated astrocytes were stimulated with 50 μg/mL poly I:C (Amersham Pharmacia Biotech, Piscataway, N.J.) or 200 ng/mL LPS (Sigma-Aldrich, Steinheim, Germany) to activate TLR3 and TLR4, respectively. […] It should be noted that contaminants in the commercial LPS preparation could possibly lead to some level of TLR2 activation in addition to TLR4 by the LPS preparation used but not of TLR3. When stimulated with cytokines, astrocytes were supplied with TNF-α, IFN-γ, IL-1β (each at 500 U/mL), IL-4 (at 250 U/mL), IL-6 (at 200 U/mL), IL-12 (at 50 ng/mL), IL-10 (at 20 ng/mL) and TGF-β (at 12.5 ng/mL) (PeproTech, Rocky Hill, N.Y.). […] Endothelial cells (UVEC) were isolated from umbillical cords and cultured on gelatin-coated dishes in M199 supplemented with 20 nM HEPES, 10% human serum, 10% heat-inactivated NBCS, 150 mg/mL ECGF, 5 U/mL heparin, 100 IU/mL penicillin and […] streptomycin.
# Analysis of the mRNA profile of astrocytes was performed by hybrid selection of ^32P-labeled cDNA on Clontech human cytokine/chemokine Atlas® arrays as previous described (Meeuwsen et al., Glia 43:243-253 [2003]). Hybridization signals for each of the 268 cytokine, chemokine and growth factor (receptor) genes were calculated as the mean of duplicate measurements, corrected for background intensity and quantified using software provided by the manufacturer. Relative expression was calculated by dividing these hybridization signals by the mean signal for all nine housekeeping reference genes on the corresponding array.
# Gene profiling was performed using astrocytes from four different control donors.
# Astrocytes were isolated from post mortem human brain tissue samples and cultured under conditions as described elsewhere in this application. One part of the culture was stimulated with 50 μg/ml stathmin, the second with 50 μg/ml poly I:C and a third was left untreated to served as a reference control. Following another 48 h RNA was isolated from each culture and ^32P-labeled cDNA was prepared by reverse transcription. Subsequent hybrid selection of these ^32P-labeled cDNA samples was performed on Clontech Atlas® arrays containing selective probes for 268 cytokines, chemokines and growth factors, and various receptors for these mediators. All hybridization signals were calculated as the mean of duplicate measurements, corrected for background intensity and quantified using software provided by the manufacturer. Relative signal strength was next calculated by dividing these averaged hybridization signals by the mean signal for all nine housekeeping reference genes that were also present on each array as a reference.
# [2] = target: T1, TLR4 (Homo sapiens, UniProt O00206+Q9Y6Y9); assay: HEK293 transfectant cells, TLR4 activation; details: at levels of at least 50 μg/mL
# T1 construct: expressed in transfected cells; host or cells: HEK293
# Method: Additional control experiments using murine astrocytes or transfected HEK293 cells were performed essentially as described previously by several other research groups.
# [3] = tested on: TLR3; assay: IL-6 release by astrocytes from wild-type mice (ELISA); details: wild-type mouse astrocytes, 48 h
# Method: Astrocytes were cultured in poly L-lysine coated 96 well-flat-bottom plates at 1×10^4 cells per well in 100 l DMEM/HAM-F10 medium containing 10% FCS and antibiotic supplements for 24 h to obtain post-confluent cultures. Recombinant human stathmin was next added to astrocytes, and parallel control stimuli were performed with either poly I:C, an established TLR3 agonist, or ultrapure lipopolysaccharides, established TLR4 agonists. After addition of these stimuli astrocytes were incubated for another 48 h. Astrocyte culture supernatants were subsequently collected and using a commercial ELISA kit levels of IL-6 were determined, as a marker for TLR-mediated activation of murine astrocytes.
# [4] = tested on: peripheral blood mononuclear cells (PBMC); assay: CXCL8 accumulation in culture of human PBMC; details: 24 h, varying doses, two donors
# From the text: Peripheral blood mononuclear cells (PBMC) were isolated from two healthy blood donors and from part of the cells, CD14^+ monocytes were isolated by positive selection using magnetic beads coated with an antibody against CD14. The purified CD14^+ monocytes were subsequently cultured for 5 days in the presence of IL-4 and granulocyte-macrophage colony stimulating factor (GM-CSF). These growth factors induce differentiation of monocytes into pre-dendritic cells (pre-DC) within this time frame. At this stage part of the pre-DC culture was stimulated with a mixture of IL-1β and TNF-α for another 2 days in culture, thus stimulating final maturation of the cells into plasmacytoid dendritic cells (DC).
# Using this differentiation method, separate populations of PBMC, pre-DC and DC were generated and after washing of the cells to remove all previously used stimuli, cells were subsequently re-cultured in fresh medium and tested for their response to either poly I:C, stathmin or LPS. Accumulation of CXCL8 in the culture medium over a 24-h period was used as a measure for cellular activation.
# [5] = tested on: immature human plasmacytoid dendritic cells (pre-DC); assay: Antibody-array profiling of 40 cytokines and chemokines in human pre-DC supernatants; details: 50 μg/ml, 48 h
# Method: To examine the effects of stathmin on the maturation and cytokine production of immature human plasmacytoid dendritic cells (pre-DC), such pre-DC were generated from samples of peripheral blood mononuclear cells by maturation of purified CD14^+ monocytes using GM-CSF and IL-4. The cells were subsequently exposed to 50 μg/ml stathmin and after 48 h, culture supernatants were collected and the accumulation of 40 different cytokines ands chemokines was evaluated by antibody-array profiling using a commercially available antibody array.
# [6] = tested on: human microglia; assay: CXCL8 accumulation in cultures of human microglia (ELISA); details: microglia from gray or white matter, 24 h
# Method: Using either gray matter samples or white matter samples of post mortem adult human brains collected within 9 h after death, several cultures of microglia were produced as previously described. Microglia were subsequently stimulated with different TLR agonists and after 24 h accumulation of CXCL8 in the culture medium was quantified using a commercial ELISA assay, as a measure of TLR-mediated activation.
# T1 sequence (O00206 24-839, species assumed): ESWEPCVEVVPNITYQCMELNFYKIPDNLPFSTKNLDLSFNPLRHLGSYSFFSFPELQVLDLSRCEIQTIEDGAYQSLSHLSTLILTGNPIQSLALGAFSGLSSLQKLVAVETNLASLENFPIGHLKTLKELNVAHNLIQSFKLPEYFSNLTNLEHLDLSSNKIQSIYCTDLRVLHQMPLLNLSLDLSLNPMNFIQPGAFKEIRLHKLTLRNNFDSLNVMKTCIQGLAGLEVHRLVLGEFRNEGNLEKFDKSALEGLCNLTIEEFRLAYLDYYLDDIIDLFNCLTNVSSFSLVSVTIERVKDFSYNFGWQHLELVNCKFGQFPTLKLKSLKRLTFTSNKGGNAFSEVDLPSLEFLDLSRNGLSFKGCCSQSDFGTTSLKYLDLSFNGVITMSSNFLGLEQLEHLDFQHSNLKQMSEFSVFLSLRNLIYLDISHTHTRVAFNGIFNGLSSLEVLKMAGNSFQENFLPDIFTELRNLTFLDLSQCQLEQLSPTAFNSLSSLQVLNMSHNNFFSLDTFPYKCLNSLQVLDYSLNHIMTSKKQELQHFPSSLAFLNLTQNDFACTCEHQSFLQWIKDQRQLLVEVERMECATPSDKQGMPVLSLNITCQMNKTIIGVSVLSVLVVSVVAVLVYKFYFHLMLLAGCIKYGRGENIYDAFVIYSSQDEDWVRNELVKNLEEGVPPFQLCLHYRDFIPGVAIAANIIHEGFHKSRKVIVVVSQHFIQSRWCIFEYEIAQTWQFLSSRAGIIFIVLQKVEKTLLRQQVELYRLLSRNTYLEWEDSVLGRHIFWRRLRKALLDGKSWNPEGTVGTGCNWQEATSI
# T1 sequence (Q9Y6Y9 17-160 limits assumed, species assumed): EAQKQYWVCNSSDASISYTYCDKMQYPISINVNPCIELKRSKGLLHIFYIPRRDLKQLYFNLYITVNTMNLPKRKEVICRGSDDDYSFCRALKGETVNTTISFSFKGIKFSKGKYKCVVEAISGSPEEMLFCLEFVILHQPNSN
molecule,measurement,setting,value
"stathmin: cytosolic phosphoprotein of 149 amino acids (SEQ ID NO: 1); purified recombinant human stathmin from a commercial source (protein, Human; (44)..(138) Stathmin-like alpha helix domain, purified recombinant human stathmin from a commercial source) MASSDIQVKELEKRASGQAFELILSPRSKESVPEFPLSPPKKKDFSLEEIQKKLEAAEERRKSHEAEVLKQLAEKREHEKEVLQKAIEENNNFSKMAEEKITHKMEANKENREAQMAAKLERLREKDKHIEEVRKNKESKDPADETEAD",change in expression of genes encoding immune mediators and growth factors,"[1]; 50 μg/ml, 48 h",comprehensive and marked change in expression
same,stathmin-induced mediators,"[1]; astrocytes (TLR3 on the cell surface), qualitative summary","CNTF, LIF; also recorded: TSG-6, IL-9, IL10, IL-11, IL-5; also recorded: VEGF, VEGF-C, CXCL8; also recorded: CCL2, CCL3, CXCL9"
same,response of HEK293 transfectant cells via TLR4,[2],does not contain any endotoxin contaminants that trigger responses
same,IL-6 release,[3],dose-dependent IL-6 induction; also recorded: marked IL-6 release
same,CXCL8 accumulation in the culture medium,[4],substantial increase in CXCL8 accumulation
same,reduction of levels of the p70 subunit of IL-12,[5],two-fold
same,CXCL8 induction ratio,[5]; vs untreated control,> 1.5
same,IL-10 induction ratio,[5]; vs untreated control,> 1.5
same,MCP-1 induction ratio,[5]; vs untreated control,> 1.5
same,p40 subunit of IL-12 induction ratio,[5]; vs untreated control,> 1.5
same,CXCL8 accumulation in the culture medium,[6],enhanced CXCL8 accumulation
